Reference: paper PMC5322768 (Developmental dynamics : an official publication of the …, 2016)

Tests used:
[1] = target: TMEM47-GFP (murine TMEM47 tagged with GFP) (murine) (UniProt Q9JJG6); assay: co-IP
[2] = target: TMEM47-GFP (murine TMEM47 tagged with GFP) (murine, UniProt Q9JJG6 1-181); assay: co-IP
Chain of TMEM47-GFP (murine TMEM47 tagged with GFP) (Q9JJG6 whole entry): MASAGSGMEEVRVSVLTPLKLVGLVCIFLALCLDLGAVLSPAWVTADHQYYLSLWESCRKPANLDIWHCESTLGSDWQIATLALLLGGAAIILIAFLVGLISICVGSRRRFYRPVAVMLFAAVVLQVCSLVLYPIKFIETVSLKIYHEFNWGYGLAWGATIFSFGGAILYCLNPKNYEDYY

Chain of TMEM47-GFP (murine TMEM47 tagged with GFP) (murine) (Q9JJG6 whole entry): as above

| precipitating fraction [1] [%] | precipitating fraction [2] [%] | Molecule |
| --- | --- | --- |
| < 5 | – | α-catenin (natural protein) |
| – | < 5 | Par6B (natural protein, canine (endogenous in MDCK), UniProt A0A8I3PSX6 1-370, looked up) MNRSHRHGAGSGCLGTMEVKSKFGAEFRRFSLERSKPGKFEEFYGLLQHVHKIPNVDVLVGYADIHGDLLPINNDDNYHKAVSTANPLLRIFIQKKEEADYSAFGTDTLIKKKNVLTNVLRPDNHRKKPHIVISMPQDFRPVSSIIDVDILPETHRRVRLYKYGTEKPLGFYIRDGSSVRVTPHGLEKVPGIFISRLVPGGLAQSTGLLAVNDEVLEVNGIEVSGKSLDQVTDMMIANSRNLIITVRPANQRNNVVRNSRTSGSSGQSTDNSLLGYPQQVEPSFEPEDEDSDEDDIIIEDNGVPQQIPKAVPNTESFESLTQIELSFESGQNGFIPSNEVSLAPIASGTNTETRAPDQKLLEEDGTIITL |
| – | < 5 | β-catenin (natural protein, canine (endogenous in MDCK), UniProt B6V8E6 1-781, looked up) MATQADLMELDMAMEPDRKAAVSHWQQQSYLDSGIHSGATTTAPSLSGKGNPEEEDVDTTQVLYEWEQGFSQSFTQEQVADIDGQYAMTRAQRVRAAMFPETLDEGMQIPSTQFDAAHPTNVQRLAEPSQMLKHAVVNLINYQDDAELATRAIPELTKLLNDEDQVVVNKAAVMVHQLSKKEASRHAIMRSPQMVSAIVRTMQNTNDVETARCTAGTLHNLSHHREGLLAIFKSGGIPALVKMLGSPVDSVLFYAITTLHNLLLHQEGAKMAVRLAGGLQKMVALLNKTNVKFLAITTDCLQILAYGNQESKLIILASGGPQALVNIMRTYTYEKLLWTTSRVLKVLSVCSSNKPAIVEAGGMQALGLHLTDPSQRLVQNCLWTLRNLSDAATKQEGMEGLLGTLVQLLGSDDINVVTCAAGILSNLTCNNYKNKMMVCQVGGIEALVRTVLRAGDREDITEPAICALRHLTSRHQEAEMAQNAVRLHYGLPVVVKLLHPPSHWPLIKATVGLIRNLALCPANHAPLREQGAIPRLVQLLVRAHQDTQRRTSMGGTQQQFVEGVRMEEIVEGCTGALHILARDVHNRIVIRGLNTIPLFVQLLYSPIENIQRVAAGVLCELAQDKEAAEAIEAEGATAPLTELLHSRNEGVATYAAAVLFRMSEDKPQDYKKRLSVELTSSLFRTEPMAWNETADLGLDIGAQGEPLGYRQDDPSYRSFHSGGYGQDALGMDPMMEHEMGGHHPGADYPVDGLPDLGHAQDLMDGLPPGDSNQLAWFDTDL |
| – | < 5 | aPKCλ–myc (myc-tagged aPKCλ) (enzyme, murine, UniProt Q62074 1-595, looked up) MPTQRDSSTMSHTVACGGGGDHSHQVRVKAYYRGDIMITHFEPSISFEGLCSEVRDMCSFDNEQPFTMKWIDEEGDPCTVSSQLELEEAFRLYELNKDSELLIHVFPCVPERPGMPCPGEDKSIYRRGARRWRKLYCANGHTFQAKRFNRRAHCAICTDRIWGLGRQGYKCINCKLLVHKKCHKLVTIECGRHSLPPEPMMPMDQTMHPDHTQTVIPYNPSSHESLDQVGEEKEAMNTRESGKASSSLGLQDFDLLRVIGRGSYAKVLLVRLKKTDRIYAMKVVKKELVNDDEDIDWVQTEKHVFEQASNHPFLVGLHSCFQTESRLFFVIEYVNGGDLMFHMQRQRKLPEEHARFYSAEISLALNYLHERGIIYRDLKLDNVLLDSEGHIKLTDYGMCKEGLRPGDTTSTFCGTPNYIAPEILRGEDYGFSVDWWALGVLMFEMMAGRSPFDIVGSSDNPDQNTEDYLFQVILEKQIRIPRSLSVKAASVLKSFLNKDPKERLGCHPQTGFADIQGHPFFRNVDWDMMEQKQVVPPFKPNISGEFGLDNFDSQFTNEPVQLTPDDDDIVRKIDQSEFEGFEYINPLLMSAEECV |
